The text below walks through data of patent US20230115257A1 (published 2023).

Values joined by “and” are separate entries in the source; they are usually repeats but may differ in a detail not shown here. Equal values may be shown once. Read-outs that look alike come from different tables or passages of the source.

Common to all, as to test: ELISA
On the technique in general: In an ELISA, binding on a coated surface is turned into a signal by an enzyme label.

For assay [1], the target named is T1, SARS-CoV-2 B.1.617.2 spike trimer variant (SARS-CoV-2 B.1.617.2 (Delta), UniProt P0DTC2 16-1213).
Assay [2] concerns the target T1, SARS-CoV-2 B.1.617.2 spike trimer …. The source holds these as a separate data set.
In assay [3] the target is T2, SARS-CoV-2 B.1.1.529 spike trimer variant (SARS-CoV-2 B.1.1.529 (Omicron), UniProt P0DTC2 16-1213).
The target in assay [4] is T3, SARS-CoV-2 BA.2 spike trimer variant (SARS-CoV-2 Omicron BA.2, UniProt P0DTC2 16-1213).
Assay [5] addresses T1, SARS-CoV-2 B.1.617.2 spike trimer …. The source holds these as a separate data set.
The target in assay [6] is T2, SARS-CoV-2 B.1.1.529 spike trimer …. This is another data set of the same source.
The target of assay [7] is T3, SARS-CoV-2 BA.2 spike trimer variant. This is another data set of the same source.
Assay [8] addresses SARS-CoV-2 Beta (B.1.351) variant prefusion stabilized spike trimer protein (UniProt P0DTC2 14-1213).
Assay [9] concerns the target T2, SARS-CoV-2 B.1.1.529 spike trimer …. This is another data set of the same source.
Assay [10] deals with T3, SARS-CoV-2 BA.2 spike trimer variant. The source holds these as a separate data set.

B1: 4-N22-A (antibody, V domains shown)
VH: QVQLQQPGTELVKPGASVKLSCKASGYTFTNYWMYWVKQRPGQGLDWIGNINPSNGGTNYNEKFKSKATLTVDKSSSTAYMQLSSLTSEDSAVYYCARETGNYWGQGTTLTVSS
VL: DILMTQSPSSMSVSLGDTVSISCHASQGISSNIGWLQQKPGKSFKGLIYHGTNLEDGVPSRFSGSGSGADYSLTISSLESEDFADYYCVQYAQFPYTFGGGTKLEIK
For orientation: EC50 means the midpoint of the concentration-response curve. A high value points to a less potent agent. For orientation: IC50 means the concentration that gives 50% inhibition. Read a low IC50 as higher potency. Turning to B1, the EC50 in assay [1] is 0.218 nM and 0.034 µg/mL; in assay [3], 0.48 nM; in assay [4] it was 0.75 nM. The IC50 in assay [2] is 2.6 µg/mL and 17.5 nM; in assay [5], 17.5 nM; in [6] it was 23.4 nM; in assay [7], 25.8 nM; in assay [8], 14 nM; in assay [9], 23.4 nM. Inhibition in assay [10] was half-maximal at 25.8 nM (IC50).

B2: 8-H5-A (antibody, V domains shown)
VH: QVTLKESGPGILQSSQTLSLTCSLSGFSLSTSGMGVSWVRQPSGKGLEWLAHIYWDDDKRYTPSLKSRLTISTDSSRKQVFLKITSVDTADTATYYCARRDLHDYDGWFAYWGQGTLVTVSA
VL: DIVMTQSQKFMSTAVGDRVSVTCKASQNVGTNVAWYQQKPGQSPKALIYSASFRYSGVPDRFSGSGSGTDFTLTISNVQSEDLAEYFCQQYNSYPLTFGSGTKLEIK
For B2, the concentration for a half-maximal effect (EC50) in assay [1] is 0.251 nM and 0.027 µg/mL; in assay [3] it was 0.5 nM; in assay [4], 1.06 nM. The IC50 was 4.1 µg/mL and 27.4 nM in [2]; 27.4 nM in assay [5]; 10.1 nM in [6]; 13.8 nM in assay [7]; 16.8 nM in assay [8]; 10.1 nM in [9]. The molecule also yielded a concentration for half-maximal inhibition (IC50) in assay [10] of 13.8 nM.
